Measurements as given in patent US20100093623A1, “COMPOSITIONS AND METHODS FOR […]-LIKE RECEPTOR ACTIVITY AND USES THEREOF” (Burnham Institute for Medical Research, priority 2008, published 2010).

Biological target: T1, (His)6-NLRP1 (NLR family, pyrin domain-containing 1), purified recombinant full-length protein from Sf21 cells (human), Q9C000
T1 chain: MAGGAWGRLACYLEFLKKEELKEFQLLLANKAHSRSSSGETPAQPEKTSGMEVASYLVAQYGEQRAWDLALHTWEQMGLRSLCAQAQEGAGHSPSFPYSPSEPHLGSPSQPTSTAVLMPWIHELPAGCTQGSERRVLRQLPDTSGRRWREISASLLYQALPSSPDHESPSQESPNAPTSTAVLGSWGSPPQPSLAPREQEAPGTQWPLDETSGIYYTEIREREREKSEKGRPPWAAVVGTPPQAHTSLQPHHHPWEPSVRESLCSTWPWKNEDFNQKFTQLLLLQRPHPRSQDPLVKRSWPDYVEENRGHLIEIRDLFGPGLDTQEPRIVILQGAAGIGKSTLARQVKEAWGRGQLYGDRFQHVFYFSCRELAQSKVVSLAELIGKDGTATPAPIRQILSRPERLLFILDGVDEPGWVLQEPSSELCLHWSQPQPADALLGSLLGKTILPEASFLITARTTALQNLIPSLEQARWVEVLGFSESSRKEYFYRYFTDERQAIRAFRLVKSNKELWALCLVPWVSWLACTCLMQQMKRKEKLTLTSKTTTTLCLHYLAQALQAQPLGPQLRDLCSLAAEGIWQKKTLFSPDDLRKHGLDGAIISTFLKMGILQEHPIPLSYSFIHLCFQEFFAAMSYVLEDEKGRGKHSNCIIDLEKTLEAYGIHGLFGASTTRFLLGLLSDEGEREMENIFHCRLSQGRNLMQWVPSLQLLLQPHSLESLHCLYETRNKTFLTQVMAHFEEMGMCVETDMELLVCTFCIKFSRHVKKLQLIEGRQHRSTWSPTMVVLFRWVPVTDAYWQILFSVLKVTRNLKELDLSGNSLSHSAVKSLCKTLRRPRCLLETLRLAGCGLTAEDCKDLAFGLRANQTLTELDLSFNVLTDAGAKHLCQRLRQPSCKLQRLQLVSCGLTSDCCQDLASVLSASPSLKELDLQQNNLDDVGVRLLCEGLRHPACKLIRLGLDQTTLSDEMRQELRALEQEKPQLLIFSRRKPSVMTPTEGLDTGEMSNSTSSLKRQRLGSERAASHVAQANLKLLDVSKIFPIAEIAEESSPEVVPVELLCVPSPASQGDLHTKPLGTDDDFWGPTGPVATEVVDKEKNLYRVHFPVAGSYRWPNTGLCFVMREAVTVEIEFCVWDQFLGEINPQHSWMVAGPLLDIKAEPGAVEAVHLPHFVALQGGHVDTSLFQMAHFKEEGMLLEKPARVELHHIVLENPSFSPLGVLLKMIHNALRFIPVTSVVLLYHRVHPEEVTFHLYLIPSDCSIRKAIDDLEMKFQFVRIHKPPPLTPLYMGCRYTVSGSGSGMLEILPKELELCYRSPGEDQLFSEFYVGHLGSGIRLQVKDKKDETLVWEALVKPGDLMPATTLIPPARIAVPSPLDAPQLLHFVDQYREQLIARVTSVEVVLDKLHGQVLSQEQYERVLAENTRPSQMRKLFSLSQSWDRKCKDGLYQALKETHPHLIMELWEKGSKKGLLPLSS
Experiment: cell-based or functional assay

B1: Bcl-2 Loop peptide 71-90 (synthetic 20'mer) (peptide)
peptide: PLQTPAAPGAAAGPALSPVP
modifications: not checked
With B1 as the binder, how does the IC50 (concentration to inhibit NLRP1-induced Caspase-1 activity by 50%) read?
The IC50 (concentration to inhibit NLRP1-induced Caspase-1 activity by 50%) was 9.92 nM.
